From patent JP2000515494A
“And” between values parts separate entries of the source, which are not always exact repeats. Equal values may be shown once.

Key:
[1] = target: 組換えヒトIL-5 (recombinant human interleukin-5) (human) (UniProt P05113); assay: optical biosensor (BIAcore)
[2] = target: 組換えヒトIL-5 (recombinant human interleukin-5) (human) (UniProt P05113); assay: cell-based or functional assay
[3] = target: hIL-5/IL-5レセプターα鎖複合体 (hIL-5 captured on IL-5RαFc) (human) (UniProt P05113); assay: ELISA (europium fluorescence), IL-5RαFc on protein A + IL-5, mAb added; concentration 8 ng/ml
[4] = target: hIL-5/IL-5レセプターα鎖複合体 (hIL-5 captured on IL-5RαFc) (human) (UniProt P05113); assay: ELISA (europium fluorescence), IL-5RαFc on protein A + IL-5, mAb added; concentration 32 ng/ml
[5] = target: hIL-5/IL-5レセプターα鎖複合体 (hIL-5 captured on IL-5RαFc) (human) (UniProt P05113); assay: ELISA (europium fluorescence), IL-5RαFc on protein A + IL-5, mAb added; concentration 2 ng/ml
[6] = target: hIL-5/IL-5レセプターα鎖複合体 (hIL-5 captured on IL-5RαFc) (human) (UniProt P05113); assay: ELISA (europium fluorescence), IL-5RαFc on protein A + IL-5, mAb added; concentration 0 ng/ml
[7] = target: 組換えヒトIL-5 (recombinant human interleukin-5) (human) (UniProt P05113); assay: inhibition of 125I-IL-5 binding to IL-5Rα (Drosophila membranes), dose dependent
[8] = target: 組換えヒトIL-5 (recombinant human interleukin-5) (human) (UniProt P05113); assay: optical biosensor

B1: ネズミモノクローナル抗体2E3 (antibody, from another filing, mouse IgG2a, V domains shown)
VH: PGLVAPSQSLSITCTVSGFSLTSYSVHWVRQPPGKGLEWLGVIWASGGTDYNSALMSRLSISKDNSKSQVFLKLNSLQTDDAAMYYCARDPPFSLLRLDFWGQGTTLTVSS
VL: SSLSVSAGEKVTMSCKSSQSLLNSGNQKNYLAWYQQKPGQPPKLLIYGASTRESGVPDRFTGSGSGTDFTLTISSVQAEDLAVYYCQNDHSFPFTFGSGTELEIK
[1]
  Kd: 0.02 nM and < 0.035 nM
[2]
  ネズミB13の増殖の阻害 (B13 proliferation assay): > 70%

B2: ネズミモノクローナル抗体2F2 (antibody, from another filing, V domains shown)
VH: PGLVAPSQSLSITCTVSGFSLTSYSVHWVRQPPGKGLEWLGVIWASGGTDYNSALMSRLSISKDNSKSQVFLKLNSLRTDDTAMYYCARDPPSSLLRLDYWGQGTTLTVSS
VL: SSLSVSAGEKVTMSCKSSQSLLNSGNQKNYLAWYQQKPGQPPKLLIYGASTRESGVPDRFTGSGSGTDFTLTISSVQAEDLAVYYCQNDHSFPFTFGSGTELEIK
[2]
  ネズミB13の増殖の阻害 (B13 proliferation assay): > 70%

B3: ネズミモノクローナル抗体2B6 (antibody, from another filing, V domains shown)
VH: QVQLKESGPGLVAPSQSLSITCTVSGFSLTSYSVHWVRQPPGKGLEWLGVIWASGGTDYNSALMSRLSISKDNSKSQVFLKLNSLQTDDTAMYYCARDPPSSLLRLDYWGQGTTLTVSS
VL: DIVMTQSPSSLSVSAGEKVTMSCKSSQSLLNSGNQKNYLAWYQQKPGQPPKLLIYGASTRESGVPDRFTGSGSGTDFTLSISSVQAEDLAVYYCQNVHSFPFTFGSGTELEIK
[3]
  結合(個数): 3200 個数
[4]
  結合(個数): 4980 個数
[1]
  Kd: 0.022 nM and < 0.035 nM
[5]
  結合(個数): 2940 個数
[2]
  ネズミB13の増殖の阻害 (B13 proliferation assay): > 70%
[6]
  結合(個数): 2770 個数

B4: mAb 2B6から由来のFab (recombinant 2B6 Fab, hexa-His) (Fab, from another filing, V domains shown)
VH: QVQLKESGPGLVAPSQSLSITCTVSGFSLTSYSVHWVRQPPGKGLEWLGVIWASGGTDYNSALMSRLSISKDNSKSQVFLKLNSLQTDDTAMYYCARDPPSSLLRLDYWGQGTTLTVSS
VL: DIVMTQSPSSLSVSAGEKVTMSCKSSQSLLNSGNQKNYLAWYQQKPGQPPKLLIYGASTRESGVPDRFTGSGSGTDFTLSISSVQAEDLAVYYCQNVHSFPFTFGSGTELEIK
[7]
  IC50: 7.5 µg/mL
[8]
  Kd: 0.09 nM
